The labels stand for the following.
B1: B-RCAL (BÜHLMANN recombinant calprotectin; His6-linker-S100A9-linker-S100A8) (complex, human)
chain: MTCKMSQLERNIETIINTFHQYSVKLGHPDTLNQGEFKELVRKDLQNFLKKENKNEKVIEHIMEDLDTNADKQLSFEEFIMLMARLTWASHEKMHEGDEGPGHHHKPGLGEGTPLEVLFQGPMLTELEKALNSIIDVYHKYSLIKGNFHAVYRDDLKKLLETECPQYIRKKGADVWFKELDINTDGAVNFQEFLILVIKMGVAAHKKSHEESHKE
notes: S100A9 (Mrp-14), human; cleavable linker, HRV 3C protease recognition site (LEVLFQ/GP); not cleaved in this molecule; S100A8 (Mrp-8), human; With calcium two fusion chains form the calprotectin tetramer; without calcium (EDTA) a single fusion chain is the 'dimer' (S100A8/S100A9); also called heterodimeric fusion protein; source: provided by BÜHLMANN Laboratories AG

Data set [1] deals with the molecule itself. In words: dynamic light scattering + other: mass photometry; B-RCAL in 20 mM HEPES, 100 mM NaCl, pH 7.5 with 2 mM CaCl2, 1 h at room temperature; tetramer = two B-RCAL fusion chains.
The target of data set [2] is T1, recombinant calprotectin B-RCAL lacking the His6-tag and with the heterodimer linker cleaved by 3C protease, … (human, cysteines replaced by serines | cysteines replaced by serines).
T1 construct: rest of the first HRV 3C site after cleavage (LEVLFQ/GP), worked out from the indicated cleavage site; S100A9, human; rest of the second HRV 3C site left on S100A9 after cleavage, worked out from the indicated cleavage site; rest of the second HRV 3C site after cleavage, worked out from the indicated cleavage site; S100A8, human; One heterodimer and one peptide in the asymmetric unit; the …
T1 chain 1: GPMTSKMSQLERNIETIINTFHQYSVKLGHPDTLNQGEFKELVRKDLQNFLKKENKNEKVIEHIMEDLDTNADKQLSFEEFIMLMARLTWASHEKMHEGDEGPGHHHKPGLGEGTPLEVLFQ
T1 chain 2: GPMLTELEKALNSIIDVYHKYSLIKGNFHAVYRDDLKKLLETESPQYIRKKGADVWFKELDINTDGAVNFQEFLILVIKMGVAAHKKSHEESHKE
In words: crystal structure; co-crystallisation of cleaved cysteine-free calprotectin (440 μM) with 14-fold excess of linear peptide 3 and 1 mM CaCl2; sitting drop, 18 °C; 0.1 M MIB pH 6.0, 25% PEG 1500. The settings on record: both partners purified.

Data set [3] deals with T2, native calprotectin derived from granulocytes (human, UniProt P05109 1-93; P06702 1-114).
T2 construct: S100A8 (Mrp-8), human, native; S100A9 (Mrp-14), human, native; Tetramer with calcium, dimer with 1 mM EDTA; also called S100A8/S100A9; Mrp-8/Mrp-14; source: also native in human serum samples; copies: 2 + 2
T2 sequence (looked up) 1: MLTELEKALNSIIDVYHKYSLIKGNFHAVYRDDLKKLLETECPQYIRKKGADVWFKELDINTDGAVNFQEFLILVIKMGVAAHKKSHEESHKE
T2 sequence (looked up) 2: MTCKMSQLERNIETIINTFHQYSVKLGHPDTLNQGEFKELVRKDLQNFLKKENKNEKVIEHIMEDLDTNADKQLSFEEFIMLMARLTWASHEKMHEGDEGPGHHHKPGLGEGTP
In words: fluorescence polarisation; calprotectin serially diluted, fluorescent peptide at 20 nM; 20 mM HEPES, 100 mM NaCl, 2 mM CaCl2, pH 7.5, 1 mM DTT, 0.01% Tween-20; tetrameric calprotectin; Kd calculated on the concentration of the heterodimer (1:1 heterodimer:peptide). The settings on record: both partners purified.

Data set [4] deals with B1. Described as above. The settings on record: both partners purified.

Values joined by “and” are separate entries in the source; they are usually repeats but may differ in a detail not shown here. Equal entries are not always repeated. Ends that are not written are not given here. 5(6)‑carboxyfluorescein = 5(6)-carboxyfluorescein on the N-terminus

One may read the Kd as the constant that tells how readily two partners part at equilibrium.

With B1, the binding result in data set [1] is “binds”.

B2: linear peptide 3 (peptide)
peptide: {5(6)‑carboxyfluorescein}-RSPESVAFPMFQSHWYSG
notes: phage-selected peptide 3 with its four cysteines replaced by serines; Synthesised on rink amide AM resin, so a C-terminal amide is likely (surmised); also called peptide 3 (linear; all four cysteines replaced with serines); source: synthetic peptide (Fmoc solid-phase synthesis, HPLC purified)
Regarding B2, in data set [2], the binding result was “binds”. Moreover, the dissociation constant Kd was 26 nM in data set [3]; 26 nM and 20 nM in data set [4].
